Results on four molecules are retold here after paper PMC8417293, “Impact of crowded environments on binding between protein and single-stranded DNA”.

A word on the Kd: it is the constant that tells how readily two partners part at equilibrium.

Conditions in all cases: protein: recombinant; single strand
For series [1], the target named is T1, BsCspB (cold shock protein B) (UniProt P32081 1-67). In words: intrinsic Trp fluorescence quenching; 100 g/L PEG1 (series b); 20 mM disodium phosphate pH 7.0, no added salt stated; fluorescence titration 298 K (0.5, 2.8 or 4 uM protein; table marks a/b not explained in the material); stopped-flow 288 K (60 or 300 nM protein); NMR 298 or 294.4 K with 5% D2O.
T1 sequence (P32081 whole entry): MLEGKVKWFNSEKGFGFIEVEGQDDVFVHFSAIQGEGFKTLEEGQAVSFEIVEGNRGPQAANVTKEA
The target in series [2] is T1, BsCspB (cold shock protein B). In words: intrinsic Trp fluorescence quenching; 100 g/L PEG8; 20 mM disodium phosphate pH 7.0, no added salt stated; fluorescence titration 298 K (0.5, 2.8 or 4 uM protein; table marks a/b not explained in the material); stopped-flow 288 K (60 or 300 nM protein); NMR 298 or 294.4 K with 5% D2O.
Series [3] shares this target. Nature of the series: intrinsic Trp fluorescence quenching; 200 g/L PEG1; 20 mM disodium phosphate pH 7.0, no added salt stated; fluorescence titration 298 K (0.5, 2.8 or 4 uM protein; table marks a/b not explained in the material); stopped-flow 288 K (60 or 300 nM protein); NMR 298 or 294.4 K with 5% D2O.
For series [4] the target is unchanged. In words: intrinsic Trp fluorescence quenching; dilute (series a); 20 mM disodium phosphate pH 7.0, no added salt stated; fluorescence titration 298 K (0.5, 2.8 or 4 uM protein; table marks a/b not explained in the material); stopped-flow 288 K (60 or 300 nM protein); NMR 298 or 294.4 K with 5% D2O.
Series [5] has the same target. Nature of the series: intrinsic Trp fluorescence quenching; 200 g/L PEG8; 20 mM disodium phosphate pH 7.0, no added salt stated; fluorescence titration 298 K (0.5, 2.8 or 4 uM protein; table marks a/b not explained in the material); stopped-flow 288 K (60 or 300 nM protein); NMR 298 or 294.4 K with 5% D2O.
Series [6] has the same target. Nature of the series: intrinsic Trp fluorescence quenching; 300 g/L PEG1; 20 mM disodium phosphate pH 7.0, no added salt stated; fluorescence titration 298 K (0.5, 2.8 or 4 uM protein; table marks a/b not explained in the material); stopped-flow 288 K (60 or 300 nM protein); NMR 298 or 294.4 K with 5% D2O.
The target is the same in series [7]. Nature of the series: intrinsic Trp fluorescence quenching; 300 g/L Dex20 (series b); 20 mM disodium phosphate pH 7.0, no added salt stated; fluorescence titration 298 K (0.5, 2.8 or 4 uM protein; table marks a/b not explained in the material); stopped-flow 288 K (60 or 300 nM protein); NMR 298 or 294.4 K with 5% D2O.
The target is the same in series [8]. Nature of the series: intrinsic Trp fluorescence quenching; 300 g/L Dex20 (series a); 20 mM disodium phosphate pH 7.0, no added salt stated; fluorescence titration 298 K (0.5, 2.8 or 4 uM protein; table marks a/b not explained in the material); stopped-flow 288 K (60 or 300 nM protein); NMR 298 or 294.4 K with 5% D2O.
Series [9] shares this target. Nature of the series: intrinsic Trp fluorescence quenching; 300 g/L PEG1 (series a); 20 mM disodium phosphate pH 7.0, no added salt stated; fluorescence titration 298 K (0.5, 2.8 or 4 uM protein; table marks a/b not explained in the material); stopped-flow 288 K (60 or 300 nM protein); NMR 298 or 294.4 K with 5% D2O.
For series [10] the target is unchanged. Nature of the series: intrinsic Trp fluorescence quenching; dilute; 20 mM disodium phosphate pH 7.0, no added salt stated; fluorescence titration 298 K (0.5, 2.8 or 4 uM protein; table marks a/b not explained in the material); stopped-flow 288 K (60 or 300 nM protein); NMR 298 or 294.4 K with 5% D2O.
Series [11] has the same target. Nature of the series: intrinsic Trp fluorescence quenching; 300 g/L ethylene glycol; 20 mM disodium phosphate pH 7.0, no added salt stated; fluorescence titration 298 K (0.5, 2.8 or 4 uM protein; table marks a/b not explained in the material); stopped-flow 288 K (60 or 300 nM protein); NMR 298 or 294.4 K with 5% D2O.
For series [12] the target is unchanged. Nature of the series: intrinsic Trp fluorescence quenching; 300 g/L glucose; 20 mM disodium phosphate pH 7.0, no added salt stated; fluorescence titration 298 K (0.5, 2.8 or 4 uM protein; table marks a/b not explained in the material); stopped-flow 288 K (60 or 300 nM protein); NMR 298 or 294.4 K with 5% D2O.
Series [13] shares this target. In words: intrinsic Trp fluorescence quenching; dilute (series b); 20 mM disodium phosphate pH 7.0, no added salt stated; fluorescence titration 298 K (0.5, 2.8 or 4 uM protein; table marks a/b not explained in the material); stopped-flow 288 K (60 or 300 nM protein); NMR 298 or 294.4 K with 5% D2O.
Series [14] shares this target. Nature of the series: intrinsic Trp fluorescence quenching; 200 g/L Dex20 (series b); 20 mM disodium phosphate pH 7.0, no added salt stated; fluorescence titration 298 K (0.5, 2.8 or 4 uM protein; table marks a/b not explained in the material); stopped-flow 288 K (60 or 300 nM protein); NMR 298 or 294.4 K with 5% D2O.
Series [15] shares this target. Nature of the series: intrinsic Trp fluorescence quenching; 100 g/L Dex20 (series b); 20 mM disodium phosphate pH 7.0, no added salt stated; fluorescence titration 298 K (0.5, 2.8 or 4 uM protein; table marks a/b not explained in the material); stopped-flow 288 K (60 or 300 nM protein); NMR 298 or 294.4 K with 5% D2O.

B1: dT7 (ssDNA)
DNA: TTTTTTT
For B1, the Kd in series [1] worked out at 10 ± 10 nM; in series [2] it was 14 ± 7 nM; in [3] it was 75 ± 15 nM; in series [4], 7 ± 3 nM; in series [5], 90 ± 20 nM; in series [6], 570 ± 30 nM. In addition, the Kd in series [7] stood at 6 ± 3 nM; in series [8], 5 ± 3 nM; in series [9], 170 ± 5 nM; in [10], 15 ± 5 nM.

B2: dT4 (ssDNA)
DNA: TTTT
Consider B2, for which the dissociation constant Kd came to 17000 ± 1100 nM in series [6] and 6100 ± 300 nM in series [10].

B3: dT5 (ssDNA)
DNA: TTTTT
As to B3, the Kd in series [11] turned out to be 5100 ± 400 nM; in series [12] it was 1310 ± 20 nM; in series [13], 780 ± 10 nM; in [14], 680 ± 20 nM; in [6], 3800 ± 100 nM; in series [15] it was 710 ± 20 nM. Besides, the Kd in series [7] was 350 ± 50 nM; in [10], 750 ± 50 nM.

B4: dT6 (ssDNA)
DNA: TTTTTT
Take B4: the equilibrium dissociation constant (Kd) in series [4] was 30 ± 10 nM; in [6], 580 ± 10 nM; in series [9] it was 415 ± 5 nM; in [10], 80 ± 10 nM.
